{
  "source": "patent US20160272995A1",
  "about": "“MANIPULATION OF PLASMODESMAL CONNECTIVITY TO IMPROVE PLANT YIELD AND FITNESS” (UNIVERSITY OF DELAWARE, priority 2013, published 2016)",
  "molecules": {"B1": {"name": "PDLP5OE: Wild-type A. thaliana PDLP5 protein (SEQ ID NO:4) constitutively overexpressed in plants under the 35S promoter (protein, listed as Arabidopsis thaliana)", "chain": "MIKTKTTSLLCFLLTAVILMNPSSSSPTDNYIYAVCSPAKFSPSSGYETNLNSLLSSFVTSTAQTRYANFTVPTGKPEPTVTVYGIYQCRGDLDPTACSTCVSSAVAQVGALCSNSYSGFLQMENCLIRYDNKSFLGVQDKTLILNKCGQPMEFNDQDALTKASDVIGSLGTGDGSYRTGGNGNVQGVAQCSGDLSTSQCQDCLSDAIGRLKSDCGMAQGGYVYLSKCYARFSVGGSHARQTPGPNFGHEGEKGNKDDNGVGKTLAIIIGIVTLIILLVVFLAFVGKCCRKLQDEKWCK"}},
  "key": {"[1]": {"test_system": "Nicotiana benthamiana leaves", "experiment": "Transient expression via Agrobacteria-infiltration, extent of viral movement", "assay_type": "in vivo", "details": "transient expression in Nicotiana benthamiana leaves", "method": "(a) Schematics of PDLP5-m5, PDLP5-C, and PDLP5-2C mutants as created by overlapping PCR. (b) Transient expression of mutants in Nicotiana benthamiana leaves.\nWe also created mutants altering just two cysteines (“CC”, residues 288 and 289 of the C-terminal tail region) or a single cysteine (“C”, residue 298 of the C-terminal tail region) residues to A1a. The phenotypes of these partial mutants, as well as the PDLP5-OX, pldp5-1 and PDLP5-m5, were tested in transient expression in Nicotiana benthamiana leaves via Agrobacteria-infiltration, targeting the extent of viral movement for comparison."}, "plasmodesmata (PD)": {"test_system": "plasmodesmata (PD)", "details": "Arabidopsis plants; cited from earlier work"}, "LAX3pro:LAX3-YFP": {"test_system": "LAX3pro:LAX3-YFP", "experiment": "LAX3pro:LAX3-YFP signal in overlying Co cells after gravistimulation", "assay_type": "in vivo, Arabidopsis thaliana", "method": "(A) Seedlings were gravistimulated at 3 days post germination and the LAX3::LAX3-YFP signal was monitored under a confocal microscope from 14 hours post-gravitropic induction through 36 hours post-gravitropic induction at the root bend. Images were selected to show the earliest detection time points. […] Scale bars, 50 μm. (B) Quantification of relative occurrence of LAX3-YFP signal in Co at 22 hours post-gravitropic induction (hpg) based on the data presented in Table 3.\nWe monitored LAX3-YFP signal accumulation in overlying Co using the gravitropic assay.\nArabidopsis seedlings expressing LAX3::LAX3:YFP in the desired background were grown as described above for three days, followed by gravistimulation by turning the plates 90° . The cortical cell fluorescence at the root bend was monitored at different time points using a Zeiss LSM 780 confocal upright light microscope using a W Plan-Apochromat 20×/1.0 DIC M27 75 mm objective and the […] excitation line of an argon laser with 520-550 nm band pass emission filter. Images are presented as 3-D composites of 30 μm-thick z-stacks."}, "Arabidopsis thaliana": {"test_system": "Arabidopsis thaliana", "experiment": "Primary and lateral root quantification in seedlings", "assay_type": "in vivo", "method": "(A) Lateral root development in wild type (WT) plants, plants having a severe knock down of PDLP5 (pdlp5-1), and plants overexpressing PDLP5 (PDLPOE) expressing DR5:GUS. Arrowheads indicate tertiary roots. (B) Quantification of total lateral root numbers (both emerged and unemerged secondary [2°], tertiary [3°], and quaternary [4°] roots). n≧30 per seedling set. Bars, standard deviation. Stars, significance determined by student T-test (P<0.01). (C) A diagram depicting several stages of LRP emergence. (D) Percent distribution of LRP stages, recorded at root bend at indicated time points following gravistimulation at 3 dpg. n≧20 seedlings per set.\n(A-C) GUS-stained 11-day-old seedlings expressing DR5:GUS in wild type (WT) Col-0 plants (A), plants having a severe knock down of PDLP5 (pdlp5-1) (B), and plants overexpressing PDLP5 (PDLPOE) (C). Size bar in (A), common to (B) and (C). (D) Measurement of primary root length in 10-day-old wild type (WT) seedlings, seedlings having a severe knock down of PDLP5 (pdlp5-1), and seedlings overexpressing PDLP5 (PDLPOE). n=30 seedling per line. (E) Measurement of % emerged lateral root (LR) of total secondary roots in 10-day-old WT, pdlp5-1, and PDLP5OE seedlings. n=30 seedling per line. (F) Measurement of average secondary root length per seedling in 7-day-old WT and pdlp5-1. n=28 seedlings per line.\nTo investigate the importance of PD function during lateral root emergence, PDLP5 loss-of-function and over-expressing lines were characterized. […] Furthermore, this reduction in secondary root development was reiterated in later stages of root branching, with PDLP5OE showing reduced tertiary root occurrence (26% and 50% of WT at 8 and 11 day post germination [dpg], respectively). […] Lateral roots were 1.4-fold longer on average in pdlp5-1 than WT (FIG. 17F) at 7 dpg and later. […] Given the overall increase in average secondary root length in pdlp5-1, we conclude that the higher occurrence of tertiary and quaternary root formation can be attributed to an accelerated secondary root growth.\nAll Arabidopsis thaliana genotypes were in the Col-0 genetic background, except for shy2-2 in Ler, and iaa28-1 in Ws. Seedlings were grown vertically in 0.5X MS agar under a continuous light at 22° C. Plants in soil were grown in a 16 hr light, 22° C. All the genetic crosses (see Table 5) were selfed, and genotyped to identify homozygous mutations when necessary. Genomic DNA was isolated from segregating F2 plants followed by PCR analyses using gene-specific primers (see Table 6).\nGUS solution (100 mM sodium phosphate buffer, pH 7.0, 10 mM EDTA, 0.5 mM each potassium ferrocyanide and potassium ferricyanide, 1.24 mM X-Gluc, and 0.1% Triton X-100) was vacuum-infiltrated into plant tissue for five minutes, then removed from vacuum and incubated in 37° C. for 3 to 12 hrs, followed by a series of ethanol washes. Stained tissues were imaged using Zeiss Axioskop 2 microscope. LRP were quantified by counting both the emerged LR and unemerged LR, as determined by DRS::GUS staining of the primordia, under a dissecting microscope (1.2× magnification). LRP stages were determined by examining ethanol-cleared, GUS-stained tissue using 40× water lens."}, "[2]": {"details": "22 hours post-gravitropic stimulation"}},
  "note": "Several values for one entry are separate records, joined by “and”; a condition that tells them apart may be missing. Identical values can stand only once.",
  "data": [
    {"molecule": "B1", "values": [
      {"measurement": "extent of viral movement", "setting": "[1]", "value": "delay in viral movement"},
      {"measurement": "movement between cells reduced by", "setting": "plasmodesmata (PD)", "value": 70, "unit": "%"},
      {"measurement": "LAX3pro:LAX3-YFP cortical signal, ratio PDLP5:WT", "setting": "LAX3pro:LAX3-YFP; 24 hpg", "value": "0.42 and 0.68"},
      {"measurement": "LAX3pro:LAX3-YFP cortical signal, seedlings", "setting": "LAX3pro:LAX3-YFP; 24 hpg", "value": 33, "unit": "%"},
      {"measurement": "LAX3pro:LAX3-YFP cortical signal, ratio PDLP5:WT", "setting": "LAX3pro:LAX3-YFP; 24 hpg, mean", "value": 0.55},
      {"measurement": "LAX3pro:LAX3-YFP cortical signal, ratio PDLP5:WT", "setting": "LAX3pro:LAX3-YFP; 36 hpg", "value": 1},
      {"measurement": "ratio to WT of seedlings expressing LAX3pro:LAX3-YFP in Co cells", "setting": "LAX3pro:LAX3-YFP; [2]", "value": 0},
      {"measurement": "seedlings expressing LAX3pro:LAX3-YFP in overlaying Co cells", "setting": "LAX3pro:LAX3-YFP; [2]", "value": "no fluorescent signals evident"},
      {"measurement": "secondary roots, % of WT number", "setting": "Arabidopsis thaliana; 8 dpg", "value": 66, "unit": "%"},
      {"measurement": "tertiary root occurrence, % of WT", "setting": "Arabidopsis thaliana; 8 dpg", "value": 26, "unit": "%"},
      {"measurement": "emerged LRP among total secondary roots, % of that found in WT", "setting": "Arabidopsis thaliana; 10-day-old seedlings", "value": 50, "unit": "%"},
      {"measurement": "secondary roots, % of WT number", "setting": "Arabidopsis thaliana; 11 dpg", "value": 77, "unit": "%"},
      {"measurement": "tertiary root occurrence, % of WT", "setting": "Arabidopsis thaliana; 11 dpg", "value": 50, "unit": "%"},
      {"measurement": "reduction in the primary root length", "setting": "Arabidopsis thaliana; ten-day-old seedlings, compared to WT", "value": "approximately 30%"}
    ]}
  ]
}
